From PMC12141489 (Scientific Reports, 2025)
Values belong to the binder of their own block, whether it stands above or below them. Where no end group is shown, it is not given here. The star is where a group is joined. Biotin = O=C1N[C@H]2[C@H](CS[C@H]2CCCCC(=O)*)N1

How the values were obtained:
[1] = target: Ab4 (humanized antibody) (human); assay: SPR
[2] = target: Ab2 (humanized antibody) (human); assay: SPR
[3] = target: myc-tagged human TRPM4 on HEK 293 cells (Homo sapiens, UniProt Q8TD43); assay: immunostaining of cells or tissue
myc-tagged human TRPM4 on HEK 293 cells, sequence (Q8TD43 whole entry): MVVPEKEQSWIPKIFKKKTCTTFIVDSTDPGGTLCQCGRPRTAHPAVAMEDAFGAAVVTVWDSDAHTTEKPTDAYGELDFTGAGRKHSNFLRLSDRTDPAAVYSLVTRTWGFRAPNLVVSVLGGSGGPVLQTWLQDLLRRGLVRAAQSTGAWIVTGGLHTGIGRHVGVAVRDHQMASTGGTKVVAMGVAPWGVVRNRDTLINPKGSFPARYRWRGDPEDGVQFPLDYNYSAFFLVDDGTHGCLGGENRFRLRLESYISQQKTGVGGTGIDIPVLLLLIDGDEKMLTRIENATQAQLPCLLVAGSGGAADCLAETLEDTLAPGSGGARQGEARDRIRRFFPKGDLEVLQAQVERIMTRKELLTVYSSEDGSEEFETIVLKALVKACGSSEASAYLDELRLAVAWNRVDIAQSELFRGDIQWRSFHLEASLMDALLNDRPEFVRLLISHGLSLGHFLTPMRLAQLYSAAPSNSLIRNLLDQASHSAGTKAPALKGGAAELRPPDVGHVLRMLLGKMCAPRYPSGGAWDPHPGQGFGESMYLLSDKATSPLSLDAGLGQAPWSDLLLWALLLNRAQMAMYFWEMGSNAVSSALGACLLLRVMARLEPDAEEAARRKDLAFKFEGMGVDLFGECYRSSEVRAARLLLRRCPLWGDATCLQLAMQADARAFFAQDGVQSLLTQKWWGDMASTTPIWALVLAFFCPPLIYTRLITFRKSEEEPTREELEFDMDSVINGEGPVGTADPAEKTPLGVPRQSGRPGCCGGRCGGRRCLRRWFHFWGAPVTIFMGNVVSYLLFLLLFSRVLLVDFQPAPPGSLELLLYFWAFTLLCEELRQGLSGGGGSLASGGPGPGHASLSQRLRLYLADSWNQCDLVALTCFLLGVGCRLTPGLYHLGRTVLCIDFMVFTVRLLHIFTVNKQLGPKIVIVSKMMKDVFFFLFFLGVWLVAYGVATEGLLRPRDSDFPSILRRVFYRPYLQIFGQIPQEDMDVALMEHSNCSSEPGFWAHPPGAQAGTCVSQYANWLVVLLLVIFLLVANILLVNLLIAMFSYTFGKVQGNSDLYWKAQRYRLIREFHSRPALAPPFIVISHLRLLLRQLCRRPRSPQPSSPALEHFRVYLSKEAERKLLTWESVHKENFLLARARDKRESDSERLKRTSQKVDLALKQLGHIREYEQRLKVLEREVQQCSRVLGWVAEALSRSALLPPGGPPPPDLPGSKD

Kd [1]: 7 nM | koff [2]: 0.00166 s⁻¹
B1: Peptide-biotin (…{Lys(biotin)}) (peptide)
peptide: RDSDSNCSSEPGFWAHPPGAQK(Biotin)

B2: Ab1 (chimeric antibody) (antibody, V domains shown)
VH: QVQLQESGPGLVKPSQSLSLTCTVTGYSITSDYAWNWIRQFPGNKLQWMGYLSYSGVTSYNPSLKGRISITRDTSKNQFFLQLSSVTPEDTATYYCARKGTYYRYEGSYWYFDVWGAGTTVTVSS
VL: DIQMNQSPSSLSASLGDTITITCHANQNIDVWLSWYQQKPGNVPKLLIYKTSNLHTGVPSRFSGSGSGTDFTLTISSLQPEDIATYYCQQGQSYPLTFGGGTKLEIK
binding result [3]: binds
